Measurements taken from US20180057581A1 (MorphoSys, published 2018).
Substitutions are numbered along the chain they refer to.

Legend:
Cytokine 1 (human) = Cytokine 1 (human) (human); assay: MSD specificity profiling, coated protein, Camille at 10 nM
Procedure: (§1) For this specificity profiling test the different proteins and controls were coated on two 384-well MSD plates with a concentration of 1 μg/ml at 4° C. over night. Plates were blocked with BSA and washed three times with PBS with 0.05% (v/v) Tween 20. Antibody samples were diluted to 100 nM and 10 nM in assay buffer (PBS with 0.5% (w/v) BSA, 0.05% (v/v) Tween 20). […] Samples and controls were incubated for three hours at room temperature. The plates were washed three times and 30 μl detection antibody (ECL-labeled anti-human Fab) were added per well and incubated for 1 h. After washing, MSD Read Buffer T with surfactant was added and electrochemiluminescence signals were detected using a Sector Imager 6000 (Meso Scale Discovery, Gaithersburg, Md., USA).

Myoglobin (horse) = Myoglobin (horse) (horse, UniProt P68082 2-154); assay: as above
Chain of Myoglobin (horse) (P68082 2-154 limits assumed): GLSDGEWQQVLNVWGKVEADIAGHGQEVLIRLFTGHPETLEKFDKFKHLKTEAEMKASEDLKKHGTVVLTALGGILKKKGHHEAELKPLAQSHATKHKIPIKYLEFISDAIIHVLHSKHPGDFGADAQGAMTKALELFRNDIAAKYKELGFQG
Procedure: as §1

Ovalbumin (chicken) = biological target: T1, Ovalbumin (chicken) (chicken, UniProt P01012 2-386); assay: as above
T1 sequence (looked up): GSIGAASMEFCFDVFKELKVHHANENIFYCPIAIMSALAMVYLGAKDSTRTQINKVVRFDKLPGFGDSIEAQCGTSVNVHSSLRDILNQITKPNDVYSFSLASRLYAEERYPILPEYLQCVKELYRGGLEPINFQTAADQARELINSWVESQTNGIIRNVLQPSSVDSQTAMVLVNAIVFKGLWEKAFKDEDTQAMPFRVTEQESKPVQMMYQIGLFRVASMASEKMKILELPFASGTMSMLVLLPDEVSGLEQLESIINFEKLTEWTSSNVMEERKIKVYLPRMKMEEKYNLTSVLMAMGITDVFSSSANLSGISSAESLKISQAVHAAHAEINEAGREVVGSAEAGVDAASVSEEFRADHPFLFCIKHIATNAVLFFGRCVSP
Procedure: as §1

[1] = biological target: Aminogylcosidase (Aspergillus niger) (Aspergillus niger); assay: as above
Chain of Aminogylcosidase (Aspergillus niger) (Aspergillus niger) (P69328 25-640): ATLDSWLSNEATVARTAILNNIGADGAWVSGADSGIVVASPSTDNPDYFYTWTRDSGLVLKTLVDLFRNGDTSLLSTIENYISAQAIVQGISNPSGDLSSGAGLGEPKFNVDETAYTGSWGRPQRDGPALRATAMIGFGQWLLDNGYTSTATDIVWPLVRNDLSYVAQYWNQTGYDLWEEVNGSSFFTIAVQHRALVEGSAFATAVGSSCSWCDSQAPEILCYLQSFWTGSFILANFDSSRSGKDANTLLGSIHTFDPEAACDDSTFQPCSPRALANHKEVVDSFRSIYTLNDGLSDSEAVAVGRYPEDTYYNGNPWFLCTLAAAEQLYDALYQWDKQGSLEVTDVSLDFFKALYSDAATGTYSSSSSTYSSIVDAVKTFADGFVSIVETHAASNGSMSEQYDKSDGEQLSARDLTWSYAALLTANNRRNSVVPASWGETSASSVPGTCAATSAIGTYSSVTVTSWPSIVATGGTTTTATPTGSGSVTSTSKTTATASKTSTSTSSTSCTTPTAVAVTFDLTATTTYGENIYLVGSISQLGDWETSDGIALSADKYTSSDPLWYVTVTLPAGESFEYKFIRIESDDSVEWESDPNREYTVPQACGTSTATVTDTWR
Procedure: as §1

Lectin (Lens culinaris) = biological target: T2, Lectin (Lens culinaris) (Lens culinaris, UniProt P02870 31-210; P02870 218-269, limits assumed); assay: as above
T2 sequence (looked up) 1: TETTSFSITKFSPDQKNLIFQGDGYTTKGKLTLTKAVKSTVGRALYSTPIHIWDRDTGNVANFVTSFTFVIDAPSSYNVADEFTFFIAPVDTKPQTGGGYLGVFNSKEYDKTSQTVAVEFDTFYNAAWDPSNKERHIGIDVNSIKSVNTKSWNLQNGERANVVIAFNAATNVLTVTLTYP
T2 sequence (looked up) 2: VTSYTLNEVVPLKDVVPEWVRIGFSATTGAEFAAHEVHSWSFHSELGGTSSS
Procedure: as §1

human M-CSF [2] = biological target: T3, human M-CSF (human, UniProt P09603 33-255, limits assumed); assay: as above
T3 construct: also called M-CSF (human); CSF-1
T3 sequence: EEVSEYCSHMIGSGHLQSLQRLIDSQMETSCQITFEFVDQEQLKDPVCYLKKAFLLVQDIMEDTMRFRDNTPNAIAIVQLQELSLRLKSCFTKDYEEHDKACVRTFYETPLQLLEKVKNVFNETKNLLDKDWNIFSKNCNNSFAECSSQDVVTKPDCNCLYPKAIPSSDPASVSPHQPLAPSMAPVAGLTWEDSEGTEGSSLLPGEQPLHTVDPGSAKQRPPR
Procedure: as §1

[3] = biological target: Cell surface receptor 3 (human) (human); assay: as above
Procedure: as §1

RNase B (cow) = biological target: T4, RNase B (cow) (cow, UniProt P61823 27-150); assay: as above
T4 sequence (looked up): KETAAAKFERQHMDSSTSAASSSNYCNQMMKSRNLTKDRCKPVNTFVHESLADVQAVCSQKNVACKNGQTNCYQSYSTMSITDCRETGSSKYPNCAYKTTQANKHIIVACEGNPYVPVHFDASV
Procedure: as §1

[4] = biological target: Cell surface receptor 2 (human) (human); assay: as above
Procedure: as §1

Cytochrome c (cow) = Cytochrome c (cow) (cow, UniProt P62894 2-105); assay: as above
Chain of Cytochrome c (cow) (P62894 2-105 limits assumed): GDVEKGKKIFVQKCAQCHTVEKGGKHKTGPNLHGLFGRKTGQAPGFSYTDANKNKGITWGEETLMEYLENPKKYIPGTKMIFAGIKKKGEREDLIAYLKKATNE
Procedure: as §1

Trypsinogen (cow) = biological target: T5, Trypsinogen (cow) (cow, UniProt P00760 18-246); assay: as above
T5 sequence (looked up): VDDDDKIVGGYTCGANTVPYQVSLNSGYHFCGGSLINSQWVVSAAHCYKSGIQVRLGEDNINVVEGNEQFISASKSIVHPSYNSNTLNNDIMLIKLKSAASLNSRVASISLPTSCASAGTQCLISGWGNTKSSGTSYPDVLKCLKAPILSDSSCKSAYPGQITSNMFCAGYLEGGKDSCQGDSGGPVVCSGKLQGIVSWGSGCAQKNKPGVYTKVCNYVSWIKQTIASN
Procedure: as §1

Serum albumin (human) = Serum albumin (human) (human, UniProt P02768 25-609); assay: as above
Procedure: as §1

[5] = biological target: T6, Recombinant cynomolgus monkey sgM-CSF (cynomolgus (Macaca fascicularis), UniProt P09603 33-255 (human entry), limits assumed); assay: ELISA
T6 construct: used also where only 'cynomolgus M-CSF' is printed (ELISA result, SET); also called cynomolgus sgM-CSF; cyno sgM-CSF
T6 chain: T3 sequence with V186M, E192D
Procedure: (§2) BSA was used as a negative control substrate.
(§3) After blocking of plates with 5% skim milk powder in PBS, Fab-containing E. coli lysates, IgG-containing cell culture supernatants or purified IgG or Fab proteins were added. Binding of Fabs or IgGs was detected by F(ab)₂ specific goat anti-human IgG conjugated to alkaline phosphatase (Dianova Cat# 109-055-097; diluted 1:5000) using Attophos fluorescence substrate (Roche, #11681982001). Fluorescence emission at 535 nm was recorded with excitation at 430 nm.

human M-CSF [6] = biological target: T3, human M-CSF; assay: ELISA
Procedure: as §2, §3

B1: Camille (format not stated) (antibody, V domains shown)
VH: QVQLQQSGPGLVKPSQTLSLTCAISGESVSTSSAAWNWIRQSPSRGLEWLGRTYYRSKWKHEYAVSVKSRITINPDTSKNQFSLQLNSVTPEDTAVYYCARDRYYYSAFDYWGQGTLVTVSS
VL: QSALTQPASVSGSPGQSITISCTGTSSDVGGYNSVSWYQQHPGKAPKLLIYAVSNRPSGVSNRFSGSKSGNTASLTISGLQAEDEADYYCASYDERFTRVFGGGTKLTVLG
notes: also called Antibody Camille
Cytokine 1 (human)
  signal normalized to reference antibody MOR03207: 1 ratio
Myoglobin (horse)
  signal normalized to reference antibody MOR03207: 1 ratio
Ovalbumin (chicken)
  signal normalized to reference antibody MOR03207: 1 ratio
[1]
  signal normalized to reference antibody MOR03207: 1 ratio
Lectin (Lens culinaris)
  signal normalized to reference antibody MOR03207: 1 ratio
Human M-CSF [2]
  signal normalized to reference antibody MOR03207: 244 ratio
[3]
  signal normalized to reference antibody MOR03207: 1 ratio
RNase B (cow)
  signal normalized to reference antibody MOR03207: 1 ratio
[4]
  signal normalized to reference antibody MOR03207: 1 ratio
Cytochrome c (cow)
  signal normalized to reference antibody MOR03207: 1 ratio
Trypsinogen (cow)
  signal normalized to reference antibody MOR03207: 1 ratio
Serum albumin (human)
  signal normalized to reference antibody MOR03207: 1 ratio
[5]
  ELISA fluorescence units: > 35000 units
Human M-CSF [6]
  ELISA fluorescence units: > 35000 units
